Measurements from article PMC10928148 (Molecular Therapy, 2024).

B1: COVA2-15 IgG (antibody, V domains shown)
VH: QVQLLESGGGLVQPGGSLRLSCAASGFTFSSYAMSWVRQAPGKGLEWASAISGSGGSTYYADSVEGRFTISRDNSKNTLYLQMNSLRAEDTAVYYCAKDTGYCGDDCYIKLIRGGPDYWGQGTLVTVSS
VL: DIVMTQSPLSLPVTLGQPASISCRSSQSLVYSDGNTFLNWFQQRPGQSPRRLIYQVSNRDSGVPDRFSGSGSGTDFTLKISRVEAEDVGVYYCMQGTHWPRTFGQGTKLEIK
B2: COVA2-15 monomeric IgA1 (antibody, V domains shown)
VH: QVQLLESGGGLVQPGGSLRLSCAASGFTFSSYAMSWVRQAPGKGLEWASAISGSGGSTYYADSVEGRFTISRDNSKNTLYLQMNSLRAEDTAVYYCAKDTGYCGDDCYIKLIRGGPDYWGQGTLVTVSS
VL: DIVMTQSPLSLPVTLGQPASISCRSSQSLVYSDGNTFLNWFQQRPGQSPRRLIYQVSNRDSGVPDRFSGSGSGTDFTLKISRVEAEDVGVYYCMQGTHWPRTFGQGTKLEIK
B3: COVA2-15 secretory IgA1 (antibody, V domains shown)
VH: QVQLLESGGGLVQPGGSLRLSCAASGFTFSSYAMSWVRQAPGKGLEWASAISGSGGSTYYADSVEGRFTISRDNSKNTLYLQMNSLRAEDTAVYYCAKDTGYCGDDCYIKLIRGGPDYWGQGTLVTVSS
VL: DIVMTQSPLSLPVTLGQPASISCRSSQSLVYSDGNTFLNWFQQRPGQSPRRLIYQVSNRDSGVPDRFSGSGSGTDFTLKISRVEAEDVGVYYCMQGTHWPRTFGQGTKLEIK
B4: COVA2-15 monomeric IgA2 (antibody, V domains shown)
VH: QVQLLESGGGLVQPGGSLRLSCAASGFTFSSYAMSWVRQAPGKGLEWASAISGSGGSTYYADSVEGRFTISRDNSKNTLYLQMNSLRAEDTAVYYCAKDTGYCGDDCYIKLIRGGPDYWGQGTLVTVSS
VL: DIVMTQSPLSLPVTLGQPASISCRSSQSLVYSDGNTFLNWFQQRPGQSPRRLIYQVSNRDSGVPDRFSGSGSGTDFTLKISRVEAEDVGVYYCMQGTHWPRTFGQGTKLEIK
B5: COVA2-15 secretory IgA2 (antibody, V domains shown)
VH: QVQLLESGGGLVQPGGSLRLSCAASGFTFSSYAMSWVRQAPGKGLEWASAISGSGGSTYYADSVEGRFTISRDNSKNTLYLQMNSLRAEDTAVYYCAKDTGYCGDDCYIKLIRGGPDYWGQGTLVTVSS
VL: DIVMTQSPLSLPVTLGQPASISCRSSQSLVYSDGNTFLNWFQQRPGQSPRRLIYQVSNRDSGVPDRFSGSGSGTDFTLKISRVEAEDVGVYYCMQGTHWPRTFGQGTKLEIK
B6: COVA2-15 monomeric IgA1 (antibody, V domains shown)
VH: QVQLLESGGGLVQPGGSLRLSCAASGFTFSSYAMSWVRQAPGKGLEWASAISGSGGSTYYADSVEGRFTISRDNSKNTLYLQMNSLRAEDTAVYYCAKDTGYCGDDCYIKLIRGGPDYWGQGTLVTVSS
VL: DIVMTQSPLSLPVTLGQPASISCRSSQSLVYSDGNTFLNWFQQRPGQSPRRLIYQVSNRDSGVPDRFSGSGSGTDFTLKISRVEAEDVGVYYCMQGTHWPRTFGQGTKLEIK
B7: COVA2-15 monomeric IgA2 (antibody, V domains shown)
VH: QVQLLESGGGLVQPGGSLRLSCAASGFTFSSYAMSWVRQAPGKGLEWASAISGSGGSTYYADSVEGRFTISRDNSKNTLYLQMNSLRAEDTAVYYCAKDTGYCGDDCYIKLIRGGPDYWGQGTLVTVSS
VL: DIVMTQSPLSLPVTLGQPASISCRSSQSLVYSDGNTFLNWFQQRPGQSPRRLIYQVSNRDSGVPDRFSGSGSGTDFTLKISRVEAEDVGVYYCMQGTHWPRTFGQGTKLEIK
B8: COVA2-15 secretory IgA1 (antibody, V domains shown)
VH: QVQLLESGGGLVQPGGSLRLSCAASGFTFSSYAMSWVRQAPGKGLEWASAISGSGGSTYYADSVEGRFTISRDNSKNTLYLQMNSLRAEDTAVYYCAKDTGYCGDDCYIKLIRGGPDYWGQGTLVTVSS
VL: DIVMTQSPLSLPVTLGQPASISCRSSQSLVYSDGNTFLNWFQQRPGQSPRRLIYQVSNRDSGVPDRFSGSGSGTDFTLKISRVEAEDVGVYYCMQGTHWPRTFGQGTKLEIK
B9: COVA2-15 IgG (antibody, V domains shown)
VH: QVQLLESGGGLVQPGGSLRLSCAASGFTFSSYAMSWVRQAPGKGLEWASAISGSGGSTYYADSVEGRFTISRDNSKNTLYLQMNSLRAEDTAVYYCAKDTGYCGDDCYIKLIRGGPDYWGQGTLVTVSS
VL: DIVMTQSPLSLPVTLGQPASISCRSSQSLVYSDGNTFLNWFQQRPGQSPRRLIYQVSNRDSGVPDRFSGSGSGTDFTLKISRVEAEDVGVYYCMQGTHWPRTFGQGTKLEIK
B10: COVA2-15 secretory IgA2 (antibody, V domains shown)
VH: QVQLLESGGGLVQPGGSLRLSCAASGFTFSSYAMSWVRQAPGKGLEWASAISGSGGSTYYADSVEGRFTISRDNSKNTLYLQMNSLRAEDTAVYYCAKDTGYCGDDCYIKLIRGGPDYWGQGTLVTVSS
VL: DIVMTQSPLSLPVTLGQPASISCRSSQSLVYSDGNTFLNWFQQRPGQSPRRLIYQVSNRDSGVPDRFSGSGSGTDFTLKISRVEAEDVGVYYCMQGTHWPRTFGQGTKLEIK

The binders below were run against T1, Wuhan-Hu-1 S protein on plant-produced virus-like particles (Severe acute respiratory syndrome …, UniProt P0DTC2) (assay: ELISA). Conditions: both partners purified.
T1 construct: also called SARS-CoV-2 VLPs (Wuhan variant)
B1 showed an EC50 of 0.032 nM.
B2 gave an EC50 of 0.054 nM.
For B3, the EC50 was 0.01 nM.
B4 gave an EC50 of 0.149 nM.
B5 gave an EC50 of 0.017 nM.

The binders below were run against T2, Wuhan-Hu-1 S protein on plant-produced virus-like particles (Severe acute respiratory syndrome …, UniProt P0DTC2) (assay: ELISA). Conditions: both partners purified.
T2 construct: also called Spike protein of the Wuhan variant on VLPs; Wuhan variant
For B6, the EC50 was roughly 0.05 nM.
Work on B7 yielded an EC50 of roughly 0.05 nM.
B8 was tested, and the EC50 was roughly 0.01 nM.
With B9 the EC50 was roughly 0.05 nM.
Binder B10 has an EC50 of roughly 0.01 nM.
